One test has as its target S. aureus delta toxin (Staphylococcus aureus, UniProt P0C1V1 1-26). Nature of the test: ELISA, plate coated with toxin component. A general note: An ELISA detects its analyte on a solid surface through an enzyme-linked reagent.
In test [1] the target is T1, HlgB (GS) (Staphylococcus aureus, UniProt P0A077 26-325).
T1 sequence: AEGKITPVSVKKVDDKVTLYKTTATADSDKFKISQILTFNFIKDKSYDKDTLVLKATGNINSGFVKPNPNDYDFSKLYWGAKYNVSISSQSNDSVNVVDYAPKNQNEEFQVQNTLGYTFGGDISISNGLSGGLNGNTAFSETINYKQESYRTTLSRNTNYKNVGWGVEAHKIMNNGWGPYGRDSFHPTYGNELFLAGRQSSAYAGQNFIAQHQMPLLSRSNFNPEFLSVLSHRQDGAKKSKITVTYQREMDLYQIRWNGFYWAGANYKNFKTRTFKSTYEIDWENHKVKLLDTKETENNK
Nature of the test: ELISA, plate coated with toxin component.
Protocol: (§1) MaxiSorp microtiter plates were coated overnight with 10 μg/mL of individual F-components of S. aureus bicomponent toxins per well. Recombinant toxin components were either obtained from IBT BioServices (Gaithersburg, Md.) or generated by GenScript (Piscataway Township, N.J.). […] Wells were washed 3 times and then incubated with 100 ng/mL anti-human HRP secondary antibody per well for one hour at 25° C. 100 μL of SuperSignal ELISA Pico Chemiluminescent Substrate, (ThermoFisher Scientific) was added to the wells and signal was detected (Victor X3 plate reader, Perkin Elmer). Luminescence values were analyzed by a three-parameter logistic equation over an 11-point response curve (GraphPad Prism). Isotype-matched irrelevant control antibody and S. aureus delta toxin were included as controls.

In test [2] the target is T2, LukD (GS) (Staphylococcus aureus, UniProt O54082 27-327).
T2 sequence: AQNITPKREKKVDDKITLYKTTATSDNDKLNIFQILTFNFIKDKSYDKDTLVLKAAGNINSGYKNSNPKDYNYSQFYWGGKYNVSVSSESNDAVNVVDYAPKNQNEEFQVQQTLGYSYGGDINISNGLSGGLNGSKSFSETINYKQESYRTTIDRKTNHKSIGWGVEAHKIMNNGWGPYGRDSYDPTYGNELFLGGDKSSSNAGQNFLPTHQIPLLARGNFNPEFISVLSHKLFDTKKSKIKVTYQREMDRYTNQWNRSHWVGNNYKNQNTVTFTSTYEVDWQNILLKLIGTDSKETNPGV
The test can be described thus: ELISA, plate coated with toxin component.
Protocol: as §1

The target of the next test is T3, LukF (GS) (Staphylococcus aureus).
T3 construct: also called LukF-PV; F-component LukF from GenScript
The test can be described thus: ELISA, plate coated with toxin component, chemiluminescence.

Test [3] deals with T1, HlgB (GS). Described as above.
Protocol: as §1
Another test has as its target T4, LukF (IBT) (Staphylococcus aureus).
T4 construct: also called LukF-PV; F-component LukF from IBT BioServices
The test is described as above.

Test [4] deals with T2, LukD (GS). Described as above.
Protocol: as §1

Protocol for LukF (GS): as §1
Protocol for LukF (IBT): as §1
Protocol for S. aureus delta toxin: as §1

B1: H1H15414P (antibody, V domains shown)
VH: EVQLVESGGDLVQPGGSLRLSCAASGFTFSSFEMNWVRQAPGKGLEWVSYISSSGSTIYYADSVKDRFTVSRDKDKNSLYLQMNSLRAEDTAVYYCARGSWNQPYFDYWGQGTLVTVSS
VL: DIQMTQSPSTLSASVGDRVTITCRASQSISSWLAWYQLKPGKAPKVLIYKASSLESGVPSRFSGSGSGTEFTLTINSLQPDDFATYYCQQYNSWTFGQGTKVEIK
Consider B1, for which the binding result with S. aureus delta toxin, in the test with HlgB (GS) [1] and with LukD (GS) [2] was “no binding (tested: titration 50 uM-100 pM)” in each case.

B2: H1H15418P2 (antibody, V domains shown)
VH: QVQLVESGGGLVRPGGSLRLSCEASGFTFNEHYMSWIRQAPGKGLEWVAFISSGGSIIYYADSVKGRFTISRDSAKNSLYLQMNSLRPEDTAIYYCAREPFGGIIVFDYWGQGTLVTVSS
VL: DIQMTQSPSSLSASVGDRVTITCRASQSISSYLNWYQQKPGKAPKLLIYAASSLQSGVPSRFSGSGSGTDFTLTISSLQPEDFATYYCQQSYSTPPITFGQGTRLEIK
Turning to B2, the binding result in the test with S. aureus delta toxin, with HlgB (GS) [1] and in the test with LukD (GS) [2] was “no binding (tested: titration 50 uM-100 pM)” each time.

B3: H1H15376P (antibody, V domains shown)
VH: QVQLQQSGPGLVKPSQTLSLTCAISGDSVASNNAAWNWIRQSPSRGLEWLGRTYYRSKWFNDYVESVKSRISFNPDTSKNQFSLQLNSVTPEDTAVYYCARSYYDFWSGYSENNYYFYGMDVWGQGTTVTVSS
VL: DIQMTQSPSSLSASVGDRVSITCRTSQGIRNDLGWYQQKPGKAPKRLIYAASSLQSGVPSRFSGSGSGTEFTLTISSLQPEDFATYYCLQHNIYPPTFGQGTKVEIK
With B3, the binding result with S. aureus delta toxin, with HlgB (GS) [1] and with LukD (GS) [2] was “no binding (tested: titration 50 uM-100 pM)” in each case.

B4: H1H15405P (antibody, V domains shown)
VH: EVQLVESGGGLVQPGGSLRLSCGASGFTFSYYWMTWVRQAPGKGLEWVANINQDGSEKFYVDSVRGRFTISRDNAKKSLYLQMNSLRAEDTAVYYCARDGYCSSIGCYNLYGMDVWGQGTTVTVSS
VL: DIQMTQSPSSLSASVGDRVTITCRASQNINKYLNWYQQKPGQAPKLLIYTTSSLQSGVPSRFSGSGSGTDFTLTISSLQPEDFATYSCQQSYNSPLTFGGGTKVEIK
As to B4, the binding result with S. aureus delta toxin, with HlgB (GS) [1] and in the test with LukD (GS) [2] was “no binding (tested: titration 50 uM-100 pM)” each time.

B5: H1H15404P (antibody, V domains shown)
VH: QVQLQESGPGLVKPSETLSLTCTVSGGSISGYFWGWIRQTPGKGLEWIGYIFYSGSTHYNPSFKSRVTMSVDTSKNQFALKLRSVTAADTAKYYCSRQREYYGSGNYRYFGMDVWGQGTTVTVSS
VL: AIQMTQSPSSLSASVGERVTITCRASQDIRDDLGWYQQRPGKAPNLLIYAASSLHSGVPSRFSGSGSGTDFTLTISSLQPEDFATYYCLQDYNYPWTFGQGTKVEIK
Regarding B5, the binding result with S. aureus delta toxin, in the test with HlgB (GS) [1] and with LukD (GS) [2] was “no binding (tested: titration 50 uM-100 pM)” in each case.

B6: H1H15410P (antibody, V domains shown)
VH: QVQLQESGPGLVKPSETLSLTCTVSGGSISGYFWGWVRQPPGKGLEWIGYIFYSGSTNYNPSLKSRITLSVDTSKNQFSLKLSSVTAADTAIYYCARHREYYGSGNYRYYALDVWGQGTTVTVSS
VL: AIQMTQSPSSLSASVGDRVTITCRASQGIRDDLGWYQQKPGKAPKLLIYAASSLQSGVPSRFSGSGSGTDFTLTISSLQPEDFATYYCLQDYNFPLTFGQGTKVEIK
As for B6, the binding result in the test with S. aureus delta toxin, with HlgB (GS) [1] and in the test with LukD (GS) [2] was “no binding (tested: titration 50 uM-100 pM)” throughout.

B7: H1H15408P (antibody, V domains shown)
VH: EVQLVESGGGLVQPGGSLRLSCAASGFTFSRYDMSWVRQAPGKGLEWVSAISYSGDSTYYADSVQGRFTISRDNSKNTLYLQMNSLRAEDTALYHCAKDNGYSGTYYYYYGMDVWGQGTTVTVSS
VL: DIQMTQSPSSLSASVGDRVTITCRASQGISNYLAWFQQKPGKAPKFLIYAASSLQSGVPSKFSGSGSGTDFTLTISSLQPEDFATYYCQQYNSYPYTFGQGTKLEIK
With B7, the binding result with S. aureus delta toxin, with HlgB (GS) [1] and in the test with LukD (GS) [2] was “no binding (tested: titration 50 uM-100 pM)” in each case.

B8: H1H15420P2 (antibody, V domains shown)
VH: QVQLQESGLGLVKPSETLSLTCTVSGDSIGTYYWSWIRQPPGKGLEWIAYIYDSRHSNSNPSLKSRVTTSVDMSKNQFSLQLKSVTAADTAVYFCARDWGTWKPEGAFDIWGQGTMVTVSS
VL: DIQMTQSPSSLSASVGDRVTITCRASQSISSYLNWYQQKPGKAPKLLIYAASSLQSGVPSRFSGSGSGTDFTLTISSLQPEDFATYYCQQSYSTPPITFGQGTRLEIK
Consider B8, for which the binding result with S. aureus delta toxin, with HlgB (GS) [1] and with LukD (GS) [2] was “no binding (tested: titration 50 uM-100 pM)” in each case.

B9: H1H15381P (antibody, V domains shown)
VH: EVQLVESGGGLVQPGGSLRLSCAASGFTFSRYDMHWVRQVTGKGLEWVSVIGTAGDTYYPDSVKGRFTISRENAKNSLSLQMNSLRAGDTAVYYCTRSYNWNFPFGYWGQGTLVTVSS
VL: DIQMTQSPSTLSASVGDRVTITCRASQSISSWLAWYQQKPGKAPRLLIYEASSLETGVPSRFSGSGSGTEFTLTISSLQPDDFATYYCQQYNRYPWTFGQGTKVEIK
Consider B9, for which the EC50 in the test with LukF (GS) is 66.7 nM; with HlgB (GS) [3], 102 nM; in the test with LukF (IBT), 165 nM; in the test with LukD (GS) [4], 59.6 nM. Moreover, the binding result in the test with S. aureus delta toxin is “no binding (tested: titration 50 uM-100 pM)”.

As usually defined, the EC50 is the concentration giving half of the maximal effect. A higher EC50 goes with weaker potency.

The record behind these values is US20180214569A1 (Regeneron, published 2018).
